± gives the half width of the 95% confidence interval.
How the values were obtained:
[1] = folding stability dG unfold (combined trypsin and chymotrypsin); higher = more stable
Method in brief: (§1)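 K50 was inferred by Bayesian fitting of sequencing counts obtained after protease digestion of designed mini-proteins. Unfolding free energy was derived by comparison with a sequence-predicted unfolded-state K50 and a shared folded-state K50, for each protease or both combined. The mini-proteins were under 80 residues, had no cysteine, were carried in a PA-tagged cDNA display construct, and were kept only if AlphaFold2 dimer inter-PAE exceeded 15.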

[2] = folding stability dG unfold from trypsin proteolysis; higher = more stable
Method in brief: as §1

[3] = folding stability dG unfold from chymotrypsin proteolysis; higher = more stable
Method in brief: as §1

Row | Sequence | folding stability dG unfold [1] [kcal/mol] | folding stability dG unfold [2] [kcal/mol] | folding stability dG unfold [3] [kcal/mol]
1 | SAGGSAGGSGVSSVLESLPPSYTVTVEKLPESGKLVVTVTSPSGAAPSLTLDEELADLLKELLSAGGSAGGS [r12_174_JUSTAS] | 1.47 ± 0.093 | 2.2 ± 0.13 | 0.626 ± 0.03
2 | SAGGSAGGSGVSSVRPVALPGGRVLVLEYFSSTGKVRVTTLTVGDGRPARAESVTPVTPESILSAGGSAGGS [r12_961_JUSTAS] | 0.495 ± 0.09 | 0.598 ± 0.052 | 0.275 ± 0.098
3 | SAGGSAGGSGVTIPIWYKMDPGQPVPTAEEIQNIINELGFPIKDIKVQYHPDNGYVRAEITVKSAGGSAGGS [r12_1052_TrROS] | 1.11 ± 0.17 | 1.25 ± 0.048 | 0.828 ± 0.088
4 | SAGGSAGGSGYLSQERPVTIKLPNGEVVEVDGVVRESPESDVVTVEIPETGQTIEVPKANVVESAGGSAGGS [r12_772_JUSTAS] | 0.447 ± 0.1 | 0.909 ± 0.06 | -0.035 ± 0.16
5 | SAGGSAGGSHRIIFRINSPGMPPRQAADRIADMLQEEHGLKIKGVDIWTYPNGSYWVTITIEPSAGGSAGGS [r12_781_TrROS] | 2.89 ± 0.073 | 2.77 ± 0.055 | 2.98 ± 0.042
6 | SAGGSAGGSIEELAKKTNIIEVKVTEFPNPKFKKAFIVYKNPKENKYKKGIYIFYDKKDGKLESAGGSAGGS [r12_133_TrMRF] | 0.313 ± 0.23 | -0.185 ± 0.35 | 0.544 ± 0.43
7 | SAGGSAGGSIEIPGGYTIPSSLSEEEAKEAAKKLFLEKNPELGVKEVEVKVETKNGKKTITVVKSAGGSAGG [r6_558_JUSTAS] | 0.714 ± 0.28 | 0.641 ± 0.074 | 0.857 ± 0.14
8 | SAGGSAGGSIKPGEEVTINFLVPPGNIPEFANELMKQDGIKDIEVKYQPFPNWYMVDITIRVKSAGGSAGGS [r12_993_TrROS] | 0.52 ± 0.096 | 0.863 ± 0.029 | -0.0266 ± 0.14
9 | SAGGSAGGSKAEVVEEKEIFTFPNGFVIKLTKVKNENGEEFEFIEIVPLPPELTEEELKKLKESAGGSAGGS [r12_775_TrROS_Hall] | 1.79 ± 0.065 | 0.711 ± 0.033 | 2.14 ± 0.023
10 | SAGGSAGGSKEFKVEEVGGRLYITFPDGTVVEVRFDKPVTFDLKTGKLYFPEGAEVEKRRLKESAGGSAGGS [r20_158_TrROS_Hall] | 0.905 ± 0.26 | 0.0253 ± 0.24 | 1.19 ± 0.12
11 | SAGGSAGGSKEKKTVILRIKIYVKNENGELIEEIEIPLKDLTLEELKELAKKLNVKVEIELLPSAGGSAGGS [r12_398_TrROS_Hall] | 3.05 ± 0.2 | 1.69 ± 0.16 | 3.5 ± 0.14
12 | SAGGSAGGSKEKKYLVIELKLKVPPGMSPEELAKLLESLPGLKVVEIVEVDEESGTVKIVVELSAGGSAGGS [r12_712_TrROS_Hall] | 3.07 ± 0.16 | 2.02 ± 0.046 | 3.54 ± 0.096
13 | SAGGSAGGSKEPIRVDEFEWRKNKDGMDMVQVTFPNNGKDIHLPPEHLDNLEPGDEIPLDDLISAGGSAGGS [r20_3_TrROS] | -0.138 ± 0.2 | -0.677 ± 0.12 | 0.192 ± 0.17
14 | SAGGSAGGSKEVKTIKVEITITDKNGKKITVKAEIVYDKKTKKYYIKIRNKKTNKTYIIELKLSAGGSAGGS [r20_71_TrROS_Hall] | 4.47 ± 0.08 | 3.29 ± 0.088 | 4.753 ± 0.047
